The values that follow come from US20180334496A1 (KODIAK SCIENCES, published 2018).

Numbering of substitutions follows the chain as printed. Where “and” joins values, the source holds several entries; their conditions need not be identical. Equal values may be shown once. Read-outs that look alike come from different tables or passages of the source.

The target in assay [1] is T1, recombinant human CFD mutant 1 (R157A, R207A), His-tagged (human, UniProt P00746 26-253).
T1 construct: positions are linear positions in the mature protein; also called rhCFD-mut1-His; Mut1
T1 sequence (P00746 26-253 R182A/R232A limits assumed): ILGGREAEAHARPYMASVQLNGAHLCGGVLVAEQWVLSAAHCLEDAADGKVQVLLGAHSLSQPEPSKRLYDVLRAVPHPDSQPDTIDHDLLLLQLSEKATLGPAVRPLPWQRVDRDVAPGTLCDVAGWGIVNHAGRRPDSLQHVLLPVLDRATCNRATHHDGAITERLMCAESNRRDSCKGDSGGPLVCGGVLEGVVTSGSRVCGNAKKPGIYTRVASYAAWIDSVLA
In words: ELISA, Mut1 Binding, Bin 2. (In general: An ELISA detects its analyte on a solid surface through an enzyme-linked reagent.)

Assay [2] has as its target T2, human complement factor D purified from serum (human, UniProt P00746 26-253).
T2 construct: serum-purified (CompTech); also called hCFD-Comptech; CFD

In assay [3] the target is T2, human complement factor D purified from …. Nature of the assay: SPR MX96.
In assay [4] the target is T3, recombinant human CFD, His-tagged (human, UniProt P00746 26-253).
T3 construct: also called rhCFD-His
T3 sequence (P00746 26-253 limits assumed): as the sequence (P00746 26-253 R182A/R232A limits assumed) above, with A157R, A207R counted along it
In words: SPR MX96.

The target of assay [5] is T4, recombinant cynomolgus CFD, His-tagged (cynomolgus).
T4 construct: also called rcyCFD-His; recombinant Cyno-CFD
Nature of the assay: SPR MX96.

Assay [6] concerns the target T1, recombinant human CFD mutant 1 (R157A, …). Nature of the assay: ELISA.
Assay [7] concerns the target T2, human complement factor D purified from …. In words: cell-based or functional assay.
Assay [8] has the same target. The source holds these as a separate data set.
The target is the same in assay [9]. In words: cell-based or functional assay. This is another data set of the same source.
The target of assay [10] is T1, recombinant human CFD mutant 1 (R157A, …). In words: SPR MX96.
For assay [11] the target is unchanged. Nature of the assay: ELISA. The source holds these as a separate data set.
Assay [12] has as its target T5, serum purified human Complement Factor D (human, UniProt P00746 26-253).
T5 construct: Serum purified protein flowed over the captured antibodies; also called CFD; human CFD
In words: SPR Biacore, 25 C.

The target in assay [13] is T5, serum purified human Complement Factor D. Nature of the assay: SPR Biacore, 37 C. A general note: In SPR one partner is held on a chip, and binding of the other changes the refractive index at the surface.
Assay [14] shares this target. In words: SPR Biacore, antibody on protein A chip, single cycle kinetics, 37 C.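 Note: antibodies captured on the protein A surface to roughly 70 RU in HBS-EP+ buffer, with rate and affinity constants fitted using BIAevaluation software.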
The target is the same in assay [15]. In words: SPR Biacore, 25 C. This is another data set of the same source.
Assay [16] has the same target. Nature of the assay: SPR Biacore, 37 C. This is another data set of the same source.
Assay [17] shares this target. In words: SPR Biacore, antibody on protein A chip, single cycle kinetics, 25 C.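 Note: antibodies captured to roughly 70 RU on the protein A surface in HBS-EP+ running buffer, with kinetic constants derived by BIAevaluation fitting.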
Throughout, for CFD Enzymatic activity (% of Neg Ctrl): test concentration or dose not given here.

T5 sequence (P00746 26-253): as the sequence (P00746 26-253 R182A/R232A limits assumed) above, with A157R, A207R counted along it
T2 sequence (P00746 26-253): as the sequence (P00746 26-253 R182A/R232A limits assumed) above, with A157R, A207R counted along it

B1: KCD010 (antibody, V domains shown)
VH: EVLLQQSGPELVKPGASVKIPCKASGYTFTDYDMDWVKQSHGKSLEWIGHINPNNGGTIYNQKFKGKATLTVDKSSSTAYMELRSLTSEDTAVYYCGTGDFAYWGHGTLVTVSA
VL: QIVLTQSPAIMSVSPGEKVTLTCSASSSVSSSYLYWYQKKPGSSPKLWIYSTSNLASGVPARFSGSGSGTSYSLTISSMEAEDAASYFCHQWSSYPPTFGAGTKLELK
notes: chimeric
As for B1, the binding result in assay [1] is “no binding”. For the same molecule, the Kd (usually the equilibrium constant for the complex coming apart) came to 1.46 nM in assay [2], 3.1 nM in assay [3], 2.5 nM in assay [4] and 2.9 nM in [5]. Also, in [6], the “Mut1 Binding (% wt)” value was found to be 3.77 % wt. In addition, the “CFD Enzymatic activity (% of Neg Ctrl)” value in [7] is 49.4 % of Neg Ctrl.

B2: KCD220 (antibody, V domains shown)
VH: QVQLQQSGAELMEPGASVKLSCKATGYTFTGYWIEWVKQRPGHGLEWIGETLPGSDSNNYNEKFKGKATFTADTSSNTAYMQLSSLTTEDSAIYYCARDYSNYWYFDVWGTGTTVTVSS
VL: DIQMTQTTSSLSASLGDRVTISCRASQDISNYLNWYQQKPDGTVKLLIYYTSNLHSGVPSRFSGSGSGTDYSLTISNLEQEDIATYFCQQDSKHRTFGGGTKLEIK
notes: chimeric
On to B2, for which the Kd turned out to be 0.0639 nM in assay [8]; 0.029 nM in assay [10]; 0.054 nM in assay [3]; 0.074 nM in assay [4]; 0.28 nM in assay [5]. The “CFD Enzymatic activity (% of Neg Ctrl)” value in assay [9] is 88.1 % of Neg Ctrl. Also, the “Mut1 Binding (% wt)” value in [11] was 74.1 % wt.

B3: KCD104 (antibody, V domains shown)
VH: QVQLQQPGAELVRPGTSVKLSCKASGYTFTSYWMHWVKQRPGQGLEWIGVIDPSDSYTYYNQKFKGKATLTVDTSSSTAYMQLSSLTSEDSAVYYCARNGYDGAMDYWGQGTSVTVSS
VL: EIQMTQTTSSLSASLGDRVTISCRASQDISNYLNWYQQKPDGTVKLLIYYPSRLHSGVPSRFSGSGSGTDYSLTISNLEQEDFATYFCQQGNTLPYTFGGGTKLEIK
notes: chimeric
Consider B3, for which the Kd is 1.32 nM in [8]; 0.82 nM in assay [10]; 1.6 nM in [3]; 1.2 nM in [4]; 72 nM in assay [5]. Moreover, the “CFD Enzymatic activity (% of Neg Ctrl)” value in assay [9] was 92.3 % of Neg Ctrl. The “Mut1 Binding (% wt)” value in assay [11] amounted to 68.3 % wt.

B4: KCD131 (antibody, V domains shown)
VH: QVQLQQSGPELVKPGASVKISCKASAYTFTDYYINWVKQRPGQGPEWIGWIFPGSNSTYSNEKFEVKATLTVDESSSTAYMLLSSLTSEDSAVYFCARLGYFGSSYHALDYWGQGTSVTVSS
VL: DIQMTQSPASLSVSVGETVTITCRASENIYSHLAWFQQKQGKSPRLLVYSATNLPDGVPSRFSGSGSGTQYSLKINILQSEDFGSYYCQHFWGTPWTFGGGTKLEIK
notes: chimeric
As to B4, the Kd in assay [8] came to 0.0342 nM; in assay [10] it was 0.045 nM; in [3], 0.14 nM; in assay [4], 0.047 nM; in [5], 0.99 nM. The “CFD Enzymatic activity (% of Neg Ctrl)” value in assay [9] is 65.9 % of Neg Ctrl. In assay [11], the “Mut1 Binding (% wt)” value amounted to 80.7 % wt.

B5: 31S54I59D / 54R101V (antibody, V domains shown)
VH: EVQLVESGGGLVQPGGSLRLSCAASGYTFTSYYMNWVRQAPGKGLEWIGDINPITGDTDYNADFKRRFTFSLDTSKSTAYLQMNSLRAEDTAVYYCTREGPSFAYWGQGTLVTVSS
VL: DIQLTQSPSSLSASVGDRVTITCRSSQTIVHSNGDTYLEWYQQKPGKAPNLLIRKVSNRFSGVPSRFSGSGSGTDFTLTISSLQPEDFATYYCFQGSHVPVTFGQGTKVEIKR
notes: KCD119 TAF variant
Turning to B5, the Kd in assay [12] is 0.00366 nM; in [13] it was 0.00817 nM; in assay [14] it was 0.00605 nM and 0.00691 nM and 0.00817 nM; in assay [15], 0.00836 nM; in [16], 0.00691 nM; in assay [17], 0.00779 nM and 0.00366 nM and 0.00836 nM. The koff – broadly, a measure of how fast the partners let go of each other – in assay [12] is 5.12e-05 s⁻¹; in assay [13], 0.000227 s⁻¹; in [14], 0.00021 s⁻¹ and 0.000214 s⁻¹ and 0.000227 s⁻¹; in assay [15] it was 0.00012 s⁻¹; in [16] it was 0.000214 s⁻¹; in assay [17], 7.94e-05 s⁻¹ and 5.12e-05 s⁻¹ and 0.00012 s⁻¹. Besides, the kon – broadly, the second-order rate constant of association – was 1.4e+07 M⁻¹ s⁻¹ in assay [12]; 2.78e+07 M⁻¹ s⁻¹ in assay [13]; 3.48e+07 M⁻¹ s⁻¹ and 3.09e+07 M⁻¹ s⁻¹ and 2.78e+07 M⁻¹ s⁻¹ in assay [14]; 1.44e+07 M⁻¹ s⁻¹ in [15]; 3.09e+07 M⁻¹ s⁻¹ in assay [16]; 1e+07 M⁻¹ s⁻¹ and 1.4e+07 M⁻¹ s⁻¹ (2×) in assay [17].

B6: 31S54I59D84S / 54R101V (antibody, V domains shown)
VH: B5 VH with N84S
VL: B5 VL
notes: also called 31554159D845 / 54R101V
As for B6, the Kd in assay [12], in assay [14], in assay [16] and in assay [17] was 0.00613 nM throughout. Moreover, the koff stood at 9.14e-05 s⁻¹ in [12], 0.000174 s⁻¹ in [14], 0.000174 s⁻¹ in assay [16] and 9.14e-05 s⁻¹ in [17]. For the same molecule, the kon in assay [12] came to 1.49e+07 M⁻¹ s⁻¹; in assay [14], 2.84e+07 M⁻¹ s⁻¹; in assay [16], 2.84e+07 M⁻¹ s⁻¹; in assay [17] it was 1.49e+07 M⁻¹ s⁻¹.

B7: KCD122 (antibody, V domains shown)
VH: EVQLQQSGPELVKPGASVKISCKASGYTFTDYYKNWMRQRHGESLEWIGDINPNNGDANYNQKFKGKATLTVDKSSSTAYMELRSLTSEDSAVYFCAREGPSFAYWGHGTLVTVSA
VL: DVLMTQTPLSLPVSLGDQASISCRSSQTIVHSNGDTYLEWYLQKPGQSPNLLIYKVSNRFSGVPDRFSGSGSGTDFTLKISRVEAEDLGVYYCFQGSHVPPTFGGGTKLEIK
notes: chimeric
For B7, the binding result in assay [1] was “no binding”. Further, the Kd in assay [2] was 0.162 nM; in [3] it was 1.4 nM; in assay [4], 0.95 nM; in assay [5] it was 1.9 nM. Moreover, the “Mut1 Binding (% wt)” value in assay [6] is 2.25 % wt. In assay [7], the “CFD Enzymatic activity (% of Neg Ctrl)” value was 17.3 % of Neg Ctrl.

B8: KCD005 (antibody, V domains shown)
VH: EVQLQQSGPELVKPGASVKISCKASGYTFTDHYMNWVKQSHGKSLEWIGDINPNNGGTSCNQKFKGKATLTVDKSSSTAYMELRSLTSGDSAVYYCTREGASFAFWGQGTLVTVSA
VL: B7 VL with T28S, N50K, P101V, G105A, I111L
notes: chimeric
For B8, the binding result in assay [1] is “no binding”. The Kd in assay [2] came out at 0.726 nM; in [3], 1.4 nM; in assay [4] it was 1.2 nM; in assay [5], 2.3 nM. Further, the “Mut1 Binding (% wt)” value in assay [6] was 1.79 % wt. Also, the “CFD Enzymatic activity (% of Neg Ctrl)” value in assay [7] is 49.2 % of Neg Ctrl.

B9: KCD123 (antibody, V domains shown)
VH: B7 VH with Q3H, Y32F, D57G, A58T, F95Y, H108Q
VL: B7 VL
notes: chimeric
In the case of B9, the binding result in assay [1] is reported as “no binding”. Besides, the Kd in assay [2] stood at 0.277 nM; in assay [3], 2.8 nM; in [4], 1.3 nM; in assay [5], 2.9 nM. Moreover, the “Mut1 Binding (% wt)” value in assay [6] stood at 2.91 % wt. Besides, the “CFD Enzymatic activity (% of Neg Ctrl)” value in assay [7] was 18.7 % of Neg Ctrl.

B10: KCD121 (antibody, V domains shown)
VH: B7 VH with A58T, N59S, K65R, Y80F, F95Y, H108Q
VL: B7 VL with S26N, K79R
notes: chimeric
As for B10, the binding result in [1] was “no binding”. The Kd in assay [2] was found to be 0.293 nM; in assay [3], 1.8 nM; in assay [4], 1.3 nM; in [5] it was 2.9 nM. The “Mut1 Binding (% wt)” value in assay [6] is 0.602 % wt. In assay [7], the “CFD Enzymatic activity (% of Neg Ctrl)” value is 16.7 % of Neg Ctrl.

B11: KCD118 (antibody, V domains shown)
VH: B7 VH with S25F, N55S, F95Y
VL: B7 VL with V90I
notes: chimeric
As for B11, in assay [1], the binding result was “no binding”. Further, the Kd in assay [2] came to 0.0883 nM; in assay [3], 0.76 nM; in [4], 0.54 nM; in assay [5] it was 1.3 nM. Moreover, the “Mut1 Binding (% wt)” value in assay [6] was determined as 0.762 % wt. In assay [7], the “CFD Enzymatic activity (% of Neg Ctrl)” value was 14 % of Neg Ctrl.

B12: KCD003 (antibody, V domains shown)
VH: EVQLQQSRPELVKPGASVKIFCKASGYTFTDYYMNWMRQRHGETLEWIGDINPNNGDPSYNQKFKDKATLTVDKSSSTASMELRSLTSDDSAVYYCAREGPSFAYWGQGTLVTVSA
VL: B7 VL with D17E
notes: chimeric
Turning to B12, the binding result in assay [1] is given as “no binding”. For the same molecule, the Kd was 0.318 nM in [2], 1.1 nM in assay [3], 0.81 nM in assay [4] and 1.8 nM in assay [5]. Moreover, in assay [6], the “Mut1 Binding (% wt)” value came to 1.53 % wt. The “CFD Enzymatic activity (% of Neg Ctrl)” value in assay [7] is 19.6 % of Neg Ctrl.
